Three molecules from publication doi:10.1101/686790 can be followed below.

In one data set the target is T1, GST-HP1γ-Hinge (UniProt P23198 77-111).
T1 chain: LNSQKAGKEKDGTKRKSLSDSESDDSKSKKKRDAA
Kind of data set: EMSA.

In a further data set the target is GST-HP1γ (UniProt P23198 11-183). Kind of data set: EMSA.
Chain of GST-HP1γ (P23198 11-183): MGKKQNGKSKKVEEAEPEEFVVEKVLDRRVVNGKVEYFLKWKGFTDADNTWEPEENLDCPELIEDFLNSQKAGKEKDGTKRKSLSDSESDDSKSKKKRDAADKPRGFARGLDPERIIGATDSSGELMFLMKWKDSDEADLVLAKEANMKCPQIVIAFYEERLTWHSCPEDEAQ

For the molecule CGCUUCGGGCUCGCCGCUCGCUUCC (ssRNA) [Scrambled], the binding result with GST-HP1γ-Hinge is given as “no binding”.

In the case of UCUGGCACACAGCCACACGCUCAC (ssRNA) [CACACA], the binding result with GST-HP1γ-Hinge and with GST-HP1γ was “binds” throughout.

GUGAGCUCCAGGCCAGUGAGAGACCCUGUCUCAA (ssRNA) [GAGAGA]: in the data set with GST-HP1γ-Hinge, the binding result is “binds”.
